Experimental findings from patent publication US20120107329 are described below.

The target in this data set is recombinant human zonulin/pre-HP2 with a 6×His tag at the C-terminus, from baculovirus-infected Sf9 cells (UniProt P00738).
recombinant human zonulin/pre-HP2 with a 6×His tag at the C-terminus, from baculovirus-infected Sf9 cells, sequence (P00738 19-406, tags left off): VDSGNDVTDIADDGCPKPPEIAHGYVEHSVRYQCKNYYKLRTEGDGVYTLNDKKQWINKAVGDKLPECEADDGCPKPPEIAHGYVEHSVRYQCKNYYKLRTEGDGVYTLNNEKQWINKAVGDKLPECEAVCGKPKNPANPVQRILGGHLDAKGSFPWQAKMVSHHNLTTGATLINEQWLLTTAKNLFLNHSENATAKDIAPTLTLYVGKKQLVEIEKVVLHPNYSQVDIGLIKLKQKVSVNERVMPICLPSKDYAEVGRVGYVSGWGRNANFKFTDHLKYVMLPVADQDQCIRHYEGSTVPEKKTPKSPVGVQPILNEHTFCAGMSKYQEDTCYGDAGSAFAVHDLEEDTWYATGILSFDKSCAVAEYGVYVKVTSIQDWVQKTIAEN
As for matriptase, the “proteolytic cleavage, SDS-PAGE” value is “Matriptase, urokinase, thrombin, and plasma kallikrein did not cleave pre-HP2”.

As for plasma kallikrein, the “proteolytic cleavage, SDS-PAGE” value was “Matriptase, urokinase, thrombin, and plasma kallikrein did not cleave pre-HP2”.

As to plasmin, the “proteolytic cleavage, SDS-PAGE” value is “plasmin caused complete degradation of the protein”.

As for thrombin, the “proteolytic cleavage, SDS-PAGE” value was “Matriptase, urokinase, thrombin, and plasma kallikrein did not cleave pre-HP2”.

Consider “trypsin (intestinal serine protease; trypsin-agarose beads, Sigma T-1763)”, for which the “proteolytic cleavage, SDS-PAGE” value is “treatment with the intestinal serine protease trypsin led to the appearance of two major bands that migrated with molecular weights compatible with the a2 and b subunits of zonulin”.

Regarding urokinase, the “proteolytic cleavage, SDS-PAGE” value was “Matriptase, urokinase, thrombin, and plasma kallikrein did not cleave pre-HP2”.
